Residue numbers refer to the chain shown, from its start.
B1: FVM05 (antibody, V domains shown)
VH: QVQLQESGPGLVKPSETLSLTCAVSGFSISSGYGWSWIRQPPGKGLEWIGYIGGSSGSTSYNPSLKSRVTLSADTSKNQFSLKLSSVTAADTAVYYCARRYSSYRSWFDVWGPGVLVTVSS
VL: SSGLTQPRSVSVSPGQTARITCGGDNIGSKSVHWYQQKPPQAPVLVIYADSERPSGIPERFSGSNSGNTATLTISGVEAGDEADYYCQVWDSSSDHWVFGGGTRLTVL
B2: FVM18 (antibody, V domains shown)
VH: QVQLVQSGAEVKRPGESLKISCKTSGYSFTNIWISWVRQMPGKGLEWLGSIYPGDSETKYNPSFQGHVTISADKSVTTTYLKWSSLKASDTATYYCVKGSETWGQGVLVTVSS
VL: NFMLTQPASLSASPGASASLTCTFSGGINVAGYHILWYQQKPGSPPRYLLRYKSDSEKDQGSGVPSRFSGSKDASANRGILRISGLQSEDEADYYCAIGHSSSGWVFGGGTRLTVL
B3: FVM12 (antibody, V domains shown)
VH: B2 VH with Q1E, K19T, G26E, N31G, I32S, L48M, E57D, K59R, N61S, H67Q
VL: QPVLTQPASLSASLGASASLTCTFSGGINVAGYNILWYQQKPGSPPRFLLRYKSDSDNVQGSGVPSHFSGSKDASTNTGILRISGLQSEDEADYYCAIGHSSGWVFGGGTRLTVL
B4: FVM13 (antibody, V domains shown)
VH: EVQLVQSGAEVKRPGESLKISCKTSGYTFTSSWISWVRQMPGKGLEWLGSIYPGDSDTRYNPSFQGHVTISADTSIITTHLQWSSLKASDTATYYCVKGSETWGQGVLVTVSS
VL: KPMLTQPTSLSASPGASASLTCTFSGGINVAGYNILWYQQKAGSPPRYLLRYKSDSTKDQGSGVPSRFSGSKDASANTGILRISGLQSEDEADYYCAIGHSSGWIFGGGTRLTVL
B5: FVM10 (antibody, V domains shown)
VH: QVQLVQSGAEVKRPGESLKISCQTSGYSFTDSWVAWVRQMPGKGLEWLGSIYPGDSETKYNPSFQGHVTISADKSISTAYLQWSSLKASDTATYYCAKGSETWGQGLRVTVSS
VL: B4 VL with K1Q, P2A, M3G, T8A, A42P, T57D
B6: FVM39 (antibody, V domains shown)
VH: B2 VH with Q1E, K19R, N31D, I32S
VL: B4 VL with K1Q, M3V, T8A
B7: FVM08 (antibody, V domains shown)
VH: EVQLVQSGAEVKRPGESLTISCKTSGYSFTDSWVAWVRQMPGKGLEWMGSIYPGDSDTRYNPSFEGQVTISADKSISTTYLQWSSLRASDTATYYCVKGADDWGQGVLVTVSS
VL: B4 VL with K1Q, M3V, T8A
B8: FVM07 (antibody, V domains shown)
VH: EVQLVQSGAEVKRPGESLTISCKTSGYSFTDSWIGWVRQMPGKGLEWMGSIYPGDSDTKYNPSFQGHVTISADKSISTTYLQWSSLKASDTATYYCVAREAYWGQGVLVTVSS
VL: B4 VL with K1Q, M3V, T8A, N34H, L36F, A42P, T57D, D59G, W104V, I105L
B9: FVM26 (antibody, V domains shown)
VH: B2 VH with K19R, S28T, N31D, I32Y, S35A, L48M, S85R
VL: B4 VL with K1Q, M3V, T8A
B10: FVM15 (antibody, V domains shown)
VH: B2 VH with K19R, S28T, N31D, I32Y, S35A, L48M, S85R
VL: B4 VL with K1Q, M3V, T8A
B11: FVM40 (antibody, V domains shown)
VH: B2 VH with Q1E, K19T, N31D, I32S, L48M
VL: B4 VL with K1Q, T8A
B12: FVM31 (antibody, V domains shown)
VH: B2 VH with K19T, N31D, I32S, I34V, S35A, E57D, T58A, K59R, K74T
VL: B4 VL with T8A
B13: FVM06 (antibody, V domains shown)
VH: EVQLVQSGAEVKRPGESLTISCKTSGYSFTNYWISWVRQMPGEGLEWMGAIDPSDSDTRYSPSFQGQVTMSADKSITTAYLQWSSLKASDTATYYCVKGSETWGQGVLVTVSS
VL: B4 VL with K1Q, M3V, T8A
B14: FVM11 (antibody, V domains shown)
VH: B2 VH with Q1E, K19T, N31D, I32S, I34V, S35A
VL: B4 VL with K1N, P2F, T8A
B15: FVM34 (antibody, V domains shown)
VH: B2 VH with Q1E, Q6E, K19T, N31D, I32S, I34V, L48M
VL: B3 VL with L14P, N34Y, L36H, F48Y, N58K, V59H, H67R, T76A
B16: FVM38 (antibody, V domains shown)
VH: B2 VH with K19T, N31D, I32S, S35G, L48M, G49A, G54D
VL: B4 VL with K1Q, M3V, T8A
B17: FVM35 (antibody, V domains shown)
VH: B2 VH with Q1E, K19T, N31S, I32Y, S35T
VL: B4 VL with K1Q, M3V, T8A
B18: FVM27 (antibody, V domains shown)
VH: B13 VH with T19K, T30A, N31S, Y32S, E43K, D57A, M70I, T77S
VL: B4 VL with K1Q, M3V, T8A, T113I
B19: FVM41 (antibody, V domains shown)
VH: B2 VH with Q1E, N31D, I32T, L48M
VL: B4 VL with K1E, P2T, M3V, L4V, T8A, W104V, I105L
B20: FVM16 (antibody, V domains shown)
VH: B2 VH with Q1E, K23R, N31S, I32T, S35N
VL: B4 VL with T8A, I105V
B21: FVM14 (antibody, V domains shown)
VH: B2 VH with Q1E, K23Q, N31S, I32T, S35T, V76I, T77S, K82Q, S84N
VL: B4 VL with K1Q, P2A, M3V, L4V, T8A
B22: FVM33 (antibody, V domains shown)
VH: B2 VH with G26R, N31S, I32S, S35G, E57D, K59R
VL: B4 VL with K1Q, M3V, T8A
B23: FVM22 (antibody, V domains shown)
VH: B5 VH with Q1E, K19T, Q23K, L107V, R108L
VL: B4 VL with K1S, P2S, M3G, T8A
B24: FVM37 (antibody, V domains shown)
VH: B2 VH with S28R, N31S, I32S
VL: B4 VL with K1S, P2S, M3E, T8A
B25: FVM01P (antibody, V domains shown)
VH: QVQLQESGPGLVKPSETLSLTCTVSGASISNYRWNWIRQPPGKGLEWIGEINGYSGSTNYNPSLKSRVTISKDASKNQFSLKLTSVTAADTAVYYCPIIGGFTLEWFDVWGPGVLVTVSS
VL: DVVLTQSPSSLSASVGDRVTITCRASQGIRNYLNWYQQKPRKAPKLLIYAASSLQSGVPSRFSGSGSGTEFTLTISSLQAEDFATYYCLQGYRTPFTFGPGTKLDIKR
B26: FVM29 (antibody, V domains shown)
VH: B13 VH with T19K, K23Q, Y27N, Y32N, E43K, D57E, M70I, T77N
VL: B4 VL with K1Q, M3V, T8A
B27: FVM36 (antibody, V domains shown)
VH: B2 VH with Q1E, K19T, N31D, I32N, L48M
VL: B4 VL with K1Q, P2S, M3V, T8A
B28: FVM42 (antibody, V domains shown)
VH: B2 VH with Q1E, Q6E, K19T, N31D, I32S, I34V, S35A, L48M
VL: B4 VL with K1Q, P2T, M3V, L4V, T8A

biological target: EBOV GPddmuc (Ebola virus (EBOV), UniProt Q05320 33-650); assay: ELISA

Row | Binder | EC50 [nM]
1 | B1 | 2.67
2 | B2 | 0.101
3 | B3 | 0.091
4 | B4 | 0.062
5 | B5 | 0.079
6 | B6 | 0.027
7 | B7 | 0.461
8 | B8 | 0.119
9 | B9 | 0.1
10 | B10 | 0.042
11 | B11 | 0.04
12 | B12 | 0.107
13 | B13 | 0.059
14 | B14 | 0.059
15 | B15 | 0.027
16 | B16 | 0.06
17 | B17 | 0.033
18 | B18 | 0.047
19 | B19 | 0.047
20 | B20 | 0.066
21 | B21 | 0.086
22 | B22 | 0.04
23 | B23 | 0.067
24 | B24 | 0.047
25 | B25 | 0.057

biological target: SUDV GPddmuc (Sudan virus (SUDV), UniProt Q66814 33-650); assay: ELISA

Row | Binder | EC50 [nM]
26 | B2 | 0.108
27 | B26 | 12.8
28 | B3 | 0.081
29 | B4 | 0.051
30 | B5 | 0.082
31 | B6 | 0.02
32 | B7 | 0.048
33 | B8 | 0.491
34 | B9 | 0.08
35 | B10 | 0.035
36 | B11 | 0.033
37 | B12 | 0.093
38 | B13 | 0.05
39 | B14 | 0.053
40 | B15 | 0.027
41 | B16 | 0.053
42 | B17 | 0.033
43 | B18 | 0.04
44 | B19 | 0.053
45 | B20 | 0.059
46 | B21 | 0.077
47 | B22 | 0.04
48 | B23 | 0.6
49 | B24 | 0.033
50 | B25 | 0.047

biological target: MARV GPddmuc (Marburg virus (MARV), UniProt P35253 19-648); assay: native ELISA

Row | Binder | binding result
51 | B1 | no binding
52 | B2 | no binding
53 | B26 | no binding
54 | B3 | no binding
55 | B4 | no binding
56 | B5 | no binding
57 | B6 | no binding
58 | B7 | no binding
59 | B8 | no binding
60 | B9 | no binding
61 | B10 | no binding
62 | B11 | no binding
63 | B12 | no binding
64 | B13 | no binding
65 | B14 | no binding
66 | B15 | no binding
67 | B16 | no binding
68 | B17 | no binding
69 | B18 | no binding
70 | B19 | no binding
71 | B20 | no binding
72 | B21 | no binding
73 | B22 | no binding
74 | B23 | no binding
75 | B24 | no binding
76 | B27 | no binding
77 | B28 | no binding
78 | B25 | no binding

From US20170334973A1 (INTEGRATED BIOTHERAPEUTICS, published 2017)
